Assay results taken from patent US20200199241A1 (Chugai, published 2020).
Changes are numbered by the printed parent chain. Names may count otherwise.

B1: IgG1-F469 (antibody)
heavy: QVQLQESGPGLVKPSETLSLTCAVSGHSISHDHAWSWVRQPPGEGLEWIGFISYSGITNYNPSLQGRVTISRDNSKNTLYLQMNSLRAEDTAVYYCARSLARTTAMDYWGEGTLVTVSSASTKGPSVFPLAPSSKSTSGGTAALGCLVKDYFPEPVTVSWNSGALTSGVHTFPAVLQSSGLYSLSSVVTVPSSSLGTQTYICNVNHKPSNTKVDKKVEPKSCDKTHTCPPCPAPELLGGPSVFLFPPKPKDTLMISRTTEVTCVVVDVSHEDPEVKFNWYVDGVEVHNAKTKPREEQYNSTYRVVSVLTPLHQDWLNGKEYKCKVSGKALPAPIEKTISKAKGQPREPQVYTLPPSRDELTKNQVSLTCLVKGFYPSDIAVEWESNGQPENNYKTTPPVLDSDGSFFLYSKLTVDKSRWQQGNVFSCSVLHEALHYHYTQKSLSLSP
light: not shown
notes: EU numbering; 'N3250' read as N325G; copies: 2 + 2
B2: IgG1-F544 (antibody)
heavy: B1 heavy with T252M, T259V, T309Q, P310V, G327N
light: not shown
notes: EU numbering; copies: 2 + 2
B3: IgG1-F475 (antibody)
heavy: B1 heavy with T258E, T259V, T309Q, P310V, G327N
light: not shown
notes: EU numbering; copies: 2 + 2
B4: IgG1-F499 (antibody)
heavy: B1 heavy with T259A, T309A, P310V, G327N, L430V
light: not shown
notes: EU numbering; copies: 2 + 2
B5: IgG1-F518 (antibody)
heavy: B1 heavy with N288E, P310V, G327N, L430M
light: not shown
notes: EU numbering; copies: 2 + 2
B6: IgG1-F474 (antibody)
heavy: B1 heavy with L311R
light: not shown
notes: EU numbering; copies: 2 + 2
B7: IgG1-F471 (antibody)
heavy: B1 heavy with E384A
light: not shown
notes: EU numbering; copies: 2 + 2
B8: IgG1-F506 (antibody)
heavy: B1 heavy with T259V, N299A, T309Q, P310V, G327N
light: not shown
notes: EU numbering; copies: 2 + 2
B9: IgG1-F490 (antibody)
heavy: B1 heavy with S241K, T259V, Q313H, G327N
light: not shown
notes: EU numbering; copies: 2 + 2
B10: IgG1-F523 (antibody)
heavy: B1 heavy with T259V, V307A, T309Q, P310V, G327N, L430Y
light: not shown
notes: EU numbering; copies: 2 + 2
B11: IgG1-F470 (antibody)
heavy: B1 heavy with T258E
light: not shown
notes: EU numbering; copies: 2 + 2
B12: IgG1-F508 (antibody)
heavy: B1 heavy with T259V, T309Q, P310V, N317A, G327N
light: not shown
notes: EU numbering; copies: 2 + 2
B13: IgG1-F534 (antibody)
heavy: B1 heavy with T259A, N288E, T309Q, P310V, G327N, L430Y
light: not shown
notes: EU numbering; copies: 2 + 2
B14: IgG1-F498 (antibody)
heavy: B1 heavy with T259A, P310V, G327N, L430V
light: not shown
notes: EU numbering; 'N428V' as printed, probably M428V; copies: 2 + 2
B15: IgG1-F500 (antibody)
heavy: B1 heavy with T259S, T309Q, P310V, G327N
light: not shown
notes: EU numbering; copies: 2 + 2
B16: IgG1-F550 (antibody)
heavy: B1 heavy with T252V, T259V, T309Q, P310V, G327N
light: not shown
notes: EU numbering; copies: 2 + 2
B17: IgG1-F476 (antibody)
heavy: B1 heavy with T259V, T309Q, P310V, G327N, E384A
light: not shown
notes: EU numbering; copies: 2 + 2
B18: IgG1-F497 (antibody)
heavy: B1 heavy with T309A, P310V, G327N, L430V
light: not shown
notes: as for B14
B19: IgG1-F510 (antibody)
heavy: B1 heavy with T259V, T309Q, P310V, G327N, N391A
light: not shown
notes: EU numbering; copies: 2 + 2
B20: IgG1-F485 (antibody)
heavy: B1 heavy with T259V, N288E, T309A, P310V, G327N, L430M
light: not shown
notes: EU numbering; copies: 2 + 2
B21: IgG1-F526 (antibody)
heavy: B1 heavy with T309Q, P310V, G327N, L430Y
light: not shown
notes: EU numbering; copies: 2 + 2
B22: IgG1-F483 (antibody)
heavy: B1 heavy with T259V, T309Q, P310V, Q313A, G327N, L430M
light: not shown
notes: EU numbering; copies: 2 + 2
B23: IgG1-F533 (antibody)
heavy: B1 heavy with T259A, N288E, T309Q, P310V, G327N, L430F
light: not shown
notes: EU numbering; copies: 2 + 2
B24: IgG1-F473 (antibody)
heavy: B1 heavy with L311P
light: not shown
notes: EU numbering; copies: 2 + 2
B25: IgG1-F481 (antibody)
heavy: B1 heavy with T309Q, P310V, G327N, L430M
light: not shown
notes: EU numbering; copies: 2 + 2
B26: IgG1-F482 (antibody)
heavy: B1 heavy with T259V, T309Q, P310V, L430M
light: not shown
notes: EU numbering; copies: 2 + 2
B27: IgG1-F538 (antibody)
heavy: B1 heavy with T252F, T259V, T309Q, P310V, G327N
light: not shown
notes: EU numbering; copies: 2 + 2
B28: IgG1-F519 (antibody)
heavy: B1 heavy with T259V, N288E, T309Q, P310V, G327N, L430M
light: not shown
notes: EU numbering; copies: 2 + 2
B29: IgG1-F541 (antibody)
heavy: B1 heavy with T252I, T259V, T309Q, P310V, G327N
light: not shown
notes: EU numbering; copies: 2 + 2
B30: IgG1-F521 (antibody)
heavy: B1 heavy with T259V, N288E, T309Q, P310V, G327N, L430Y
light: not shown
notes: EU numbering; copies: 2 + 2
B31: IgG1-F517 (antibody)
heavy: B1 heavy with T259V, N288E, P310V, G327N, L430M
light: not shown
notes: EU numbering; copies: 2 + 2
B32: IgG1-F507 (antibody)
heavy: B1 heavy with T259V, N288A, T309Q, P310V, G327N
light: not shown
notes: EU numbering; copies: 2 + 2
B33: IgG1-F486 (antibody)
heavy: B1 heavy with T259V, T309Q, P310V, L311R, Q313H, G327N
light: not shown
notes: EU numbering; copies: 2 + 2
B34: IgG1-F535 (antibody)
heavy: B1 heavy with T252A, T259V, T309Q, P310V, G327N
light: not shown
notes: EU numbering; copies: 2 + 2
B35: IgG1-F549 (antibody)
heavy: B1 heavy with T252S, T259V, T309Q, P310V, G327N
light: not shown
notes: EU numbering; copies: 2 + 2
B36: IgG1-F472 (antibody)
heavy: B1 heavy with P389E
light: not shown
notes: EU numbering; copies: 2 + 2
B37: IgG1-F477 (antibody)
heavy: B1 heavy with T259V, T309Q, P310V, G327N, P389E
light: not shown
notes: EU numbering; copies: 2 + 2
B38: IgG1-F493 (antibody)
heavy: B1 heavy with S241K, T259P, D272F, T309P, P310V, L430Y
light: not shown
notes: EU numbering; copies: 2 + 2
B39: IgG1-F480 (antibody)
heavy: B1 heavy with T259L, G327N, L430M
light: not shown
notes: EU numbering; copies: 2 + 2
B40: IgG1-F484 (antibody)
heavy: B1 heavy with T259V, V307A, T309Q, P310V, G327N, L430M
light: not shown
notes: EU numbering; copies: 2 + 2
B41: IgG1-F488 (antibody)
heavy: B1 heavy with T259V
light: not shown
notes: EU numbering; copies: 2 + 2
B42: IgG1-F509 (antibody)
heavy: B1 heavy with T259V, T309Q, P310V, G327N, N386A
light: not shown
notes: EU numbering; copies: 2 + 2

target: T1, human FcRn (soluble human FcRn complexed with β2-microglobulin) (human, UniProt P61769 21-119, limits assumed); assay: SPR, pH 7.0;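 further: antibodies captured on a Protein L sensor chip with human FcRn injected as analyte, KD calculated from fitted association and dissociation rate constants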
T1 construct: also called hFcRn

Kd	Binder
56 nM	B1
31 nM	B2
43 nM	B3
520 nM	B4
420 nM	B5
350 nM	B6
66 nM	B7
190 nM	B8
75 nM	B9
26 nM	B10
54 nM	B11
110 nM	B12
12 nM	B13
1300 nM	B14
43 nM	B15
59 nM	B16
55 nM	B17
3100 nM	B18
53 nM	B19
97 nM	B20
19 nM	B21

Kd	Binder
57 nM	B22
12 nM	B23
450 nM	B24
56 nM	B25
70 nM	B26
99 nM	B27
26 nM	B28
60 nM	B29
11 nM	B30
310 nM	B31
51 nM	B32
340 nM	B33
39 nM	B34
54 nM	B35
54 nM	B36
43 nM	B37
490 nM	B38
39 nM	B39
62 nM	B40
35 nM	B41
58 nM	B42
